Test results published in patent US6881719B2, “β-turn peptidomimetic cyclic compounds” (McGill University, priority 2000, dated 2005).
Several values for one entry are separate records, joined by “and”; a condition that tells them apart may be missing. Identical values can stand only once. Each block holds one molecule with its values, some of them ahead of it. Positions of bridges follow the written chain, without caps; N, C: chain ends. Non-standard residues stand in square brackets, D forms with d. 5‑nitrobenzoyl = N-terminal 5-nitrobenzoyl group, introduced by coupling 2-fluoro-5-nitrobenzoyl chloride; hSer = N[C@@H](CCO)C(=O)O

How the values were obtained:
[1] = biological target: human TrkA expressed on transfected cells (4-3.6 cells; NIH3T3-TrkA cells) (human) (UniProt P04629); test: FACScan, 4-3.6 cells, avidin-FITC
[2] = biological target: p75 NGF receptor on B104 rat neuroblastoma cells and 4-3.6 cells (rat) (UniProt P07174); test: FACScan, B104 cells (p75+ TrkA-), avidin-FITC
[3] = biological target: human TrkA expressed on transfected cells (4-3.6 cells; NIH3T3-TrkA cells) (human) (UniProt P04629); test: FACScan, 4-3.6 cells (p75+ TrkA+), avidin-FITC
[4] = test system: embryonic rat DRG primary neuronal cultures; test: Cell survival (MTT), primary DRG cultures; format: cell-based; settings: 8 days;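 as to % Protection: 100% equals survival with optimal NGF at 1 nM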
Procedure: Fetal rat DRG primary cultures were established from Sprague Dawley day 17 rat embryos. All ganglia were dissected and dissociated first enzymatically with trypsin and then mechanically. Dissociated cells were cultured (10^5 cells/well) in 96 well plates pre-coated with collagen, and grown for a total of 8 days in Neuro Basal Medium containing N2 supplement (GIBCO, Toronto), antibiotics, and L-glutamine. These DRG cultures are ˜85% TrkA-expressing and are heavily dependent on TrkA signals for survival.
Primary DRG cultures: After a total of 8 days of culture with the indicated test or control ligands, cell survival were studied using the 3(4,5-Dimethylthiazolyl-2)-2,5-diphenyl tetrazolium bromide colorimetric (MTT) assay, and by microscopic observation.
(§1) Cell lines: 5,000 cells/well in protein-free media (PFHM-II, GIBCO, Toronto) containing 0.2% bovine serum albumin (BSA) (Crystalline fraction V, Sigma, St. Louis, Mo.) were seeded in 96 well plates (Falcon, Mississauga, Ontario). The cultures were untreated, or treated with the indicated test or control ligands. Cell viability was quantitated using the MTT assay after 56-72 hours of culture. […] The OD of untreated cells were subtracted. The higher optical density of untreated primary cultures is likely due to cellular heterogeneity and to endogenous production of limiting amounts of growth factors.

septal neuronal cultures = test: ChAT activity in septal neuronal cultures; format: cell-based, rat; settings: day 8
Procedure: Cell cultures were established from the septal area of 17-day-old rat embryos. In brief, tissue was incubated in PBS containing trypsin and DNase. Tissue pieces then were mechanically dissociated. After centrifugation, the pellet was suspended in Leibovitz's L-15 medium. Cells were plated onto 96-multiwell NUNC dishes (10^5 cells/well) coated with poly-D-lysine (5 μg/ml). Pure cultures of septal neurons were treated 1 day after plating. Drugs, prepared in medium, were added directly to the cells without changing the initial medium. The incubation continued for 8 days, at which time ChAT activity was evaluated.
At day 8 of culture, the medium was aspirated, and ice-cold lysis buffer (10 mM sodium phosphate, pH 7.4/0.1% TritonX-100—Trade-mark) was added. ChAT activity assays were performed directly in the wells using Fonnum's method (Fonnum, 1975).

[5] = biological target: T1, NIH3T3 fibroblasts expressing TrkC (Homo sapiens, UniProt Q16288); test: Cell survival (MTT), NIH-TrkC; format: cell-based; settings: 72 hours
T1 construct: expressed in transfected cells; host or cells: NIH3T3 fibroblasts
Description: (§2) The 4-3.6 cells are B104 cells stably transfected with human trkA cDNA, and express equal levels of p75 and TrkA (TrkA+ p75+). For screening agents that activate or antagonize TrkC receptors, NIH3T3 fibroblasts were stably transfected with human TrkC cDNA. These cells respond to the ligand NT-3. For screening agents that activate or antagonize TrkA receptors, NIH3T3 fibroblasts were stably transfected with human TrkA cDNA. These cells respond to the ligand NGF.
as §1

[6] = test system: wild type NIH3T3 fibroblasts; test: Cell survival (MTT), NIH wt; format: cell-based; settings: 72 hours
Description: as §2, §1

B104 cells = test: Cell survival control, B104 cells; format: cell-based, rat
Description: as §2, §1

wild type HEK293 cells = test: Cell survival control, wild type HEK293 cells; format: cell-based
Procedure: as §1

[7] = test system: TrkB-expressing HEK293 cells; test: Cell survival control, TrkB-expressing HEK293 cells; format: cell-based
Procedure: as §1

[8] = Proteolytic stability, then trophic assay on 4-3.6 cells; settings: exposure to trypsin or pepsin (D3: 1 hour)
Procedure: The proteolytic stability of D3 versus trypsin and papain was assessed. D3 was first exposed to enzymatic treatment as described previously (Saragovi et al., 1992), followed by gauging its biological activity on 4-3.6 cells.

[9] = biological target: human TrkA expressed on transfected cells (4-3.6 cells; NIH3T3-TrkA cells) (human) (UniProt P04629); test: cell-based or functional assay
[10] = biological target: TrkA on primary rat embryonic neurons (DRG and septal cultures) (rat, UniProt P35739 33-799); test: cell-based or functional assay
[11] = biological target: human TrkA expressed on transfected cells (4-3.6 cells; NIH3T3-TrkA cells) (human) (UniProt P04629); test: FACScan competition, 4-3.6 cells, mAb 5C3 1 nM, competitor D3 1 µM
[12] = biological target: human TrkA expressed on transfected cells (4-3.6 cells; NIH3T3-TrkA cells) (human) (UniProt P04629); test: FACScan competition, 4-3.6 cells, mAb 5C3 1 nM, competitor D3 5 µM
[13] = biological target: human TrkA expressed on transfected cells (4-3.6 cells; NIH3T3-TrkA cells) (human) (UniProt P04629); test: estimated from FACScan competition against mAb 5C3 on 4-3.6 cells
[14] = biological target: human TrkA expressed on transfected cells (4-3.6 cells; NIH3T3-TrkA cells) (human) (UniProt P04629); test: FACScan competition, 4-3.6 cells, mAb 5C3 1 nM, competitor D3 40 µM
[15] = biological target: human TrkA expressed on transfected cells (4-3.6 cells; NIH3T3-TrkA cells) (human) (UniProt P04629); test: FACScan competition, 4-3.6 cells, mAb 5C3 1 nM, competitor D3 0.20 µM
[16] = biological target: p75 NGF receptor on B104 rat neuroblastoma cells and 4-3.6 cells (rat) (UniProt P07174); test: FACScan competition, 4-3.6 cells, mAb MC192 1 nM, competitor D3 40 µM
[17] = biological target: recombinant baculovirus TrkA-extracellular domain protein (TrkA-ECD) (UniProt P04629); test: calculated from competition ELISA against mAb 5C3 on immobilized TrkA-ECD
[18] = biological target: recombinant baculovirus TrkA-extracellular domain protein (TrkA-ECD) (UniProt P04629); test: competition ELISA, mAb 5C3 2 nM on immobilized TrkA-ECD, competitor D3 1 µM
[19] = biological target: recombinant baculovirus TrkA-extracellular domain protein (TrkA-ECD) (UniProt P04629); test: competition ELISA, mAb 5C3 2 nM on immobilized TrkA-ECD, competitor D3 5 µM
[20] = biological target: recombinant baculovirus TrkA-extracellular domain protein (TrkA-ECD) (UniProt P04629); test: competition ELISA, mAb 5C3 2 nM on immobilized TrkA-ECD, competitor D3 20 µM
[21] = biological target: recombinant baculovirus TrkA-extracellular domain protein (TrkA-ECD) (UniProt P04629); test: competition ELISA, mAb 5C3 2 nM on immobilized TrkA-ECD, competitor D3 40 µM
[22] = biological target: recombinant baculovirus TrkA-extracellular domain protein (TrkA-ECD) (UniProt P04629); test: competition ELISA, mAb 5C3 2 nM on immobilized TrkA-ECD, competitor D3 0.2 µM
[23] = biological target: recombinant baculovirus TrkA-extracellular domain protein (TrkA-ECD) (UniProt P04629); test: competition ELISA, mAb 5C3 2 nM on immobilized TrkA-ECD, competitor D3 0.05 µM
[24] = biological target: p75 NGF receptor on B104 rat neuroblastoma cells and 4-3.6 cells (rat) (UniProt P07174); test: FACScan, B104 cells (p75+ TrkA-), D3-biotin 20 µM with 10-fold molar excess of D3, avidin-FITC
[25] = biological target: human TrkA expressed on transfected cells (4-3.6 cells; NIH3T3-TrkA cells) (human) (UniProt P04629); test: FACScan, 4-3.6 cells (p75+ TrkA+), D3-biotin 20 µM with 10-fold molar excess of D3, avidin-FITC

recombinant baculovirus TrkA-extracellular domain protein (TrkA-ECD), sequence (P04629 33-423 limits assumed): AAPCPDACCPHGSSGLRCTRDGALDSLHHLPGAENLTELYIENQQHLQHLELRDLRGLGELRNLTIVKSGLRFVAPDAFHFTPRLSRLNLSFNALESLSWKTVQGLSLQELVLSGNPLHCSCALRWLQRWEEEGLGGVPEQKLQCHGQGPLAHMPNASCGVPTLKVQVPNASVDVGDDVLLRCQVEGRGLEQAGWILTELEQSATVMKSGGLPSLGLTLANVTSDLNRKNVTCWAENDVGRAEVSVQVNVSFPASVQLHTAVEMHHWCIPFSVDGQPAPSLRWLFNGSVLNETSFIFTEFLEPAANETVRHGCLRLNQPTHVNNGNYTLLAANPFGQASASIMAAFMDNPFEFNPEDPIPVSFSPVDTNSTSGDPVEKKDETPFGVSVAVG
p75 NGF receptor on B104 rat neuroblastoma cells and 4-3.6 cells (rat), sequence (P07174 30-425): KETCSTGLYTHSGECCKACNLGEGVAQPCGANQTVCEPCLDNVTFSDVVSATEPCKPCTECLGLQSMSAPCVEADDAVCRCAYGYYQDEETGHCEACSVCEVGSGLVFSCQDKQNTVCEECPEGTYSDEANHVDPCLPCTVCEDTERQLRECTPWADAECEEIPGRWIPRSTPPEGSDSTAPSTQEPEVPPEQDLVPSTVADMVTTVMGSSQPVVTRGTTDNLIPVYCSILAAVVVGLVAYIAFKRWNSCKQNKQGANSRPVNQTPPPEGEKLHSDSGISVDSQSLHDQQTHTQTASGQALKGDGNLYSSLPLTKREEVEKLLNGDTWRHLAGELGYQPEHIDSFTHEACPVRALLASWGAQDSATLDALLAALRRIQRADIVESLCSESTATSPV
TrkA on primary rat embryonic neurons (DRG and septal cultures), sequence (P35739 33-799): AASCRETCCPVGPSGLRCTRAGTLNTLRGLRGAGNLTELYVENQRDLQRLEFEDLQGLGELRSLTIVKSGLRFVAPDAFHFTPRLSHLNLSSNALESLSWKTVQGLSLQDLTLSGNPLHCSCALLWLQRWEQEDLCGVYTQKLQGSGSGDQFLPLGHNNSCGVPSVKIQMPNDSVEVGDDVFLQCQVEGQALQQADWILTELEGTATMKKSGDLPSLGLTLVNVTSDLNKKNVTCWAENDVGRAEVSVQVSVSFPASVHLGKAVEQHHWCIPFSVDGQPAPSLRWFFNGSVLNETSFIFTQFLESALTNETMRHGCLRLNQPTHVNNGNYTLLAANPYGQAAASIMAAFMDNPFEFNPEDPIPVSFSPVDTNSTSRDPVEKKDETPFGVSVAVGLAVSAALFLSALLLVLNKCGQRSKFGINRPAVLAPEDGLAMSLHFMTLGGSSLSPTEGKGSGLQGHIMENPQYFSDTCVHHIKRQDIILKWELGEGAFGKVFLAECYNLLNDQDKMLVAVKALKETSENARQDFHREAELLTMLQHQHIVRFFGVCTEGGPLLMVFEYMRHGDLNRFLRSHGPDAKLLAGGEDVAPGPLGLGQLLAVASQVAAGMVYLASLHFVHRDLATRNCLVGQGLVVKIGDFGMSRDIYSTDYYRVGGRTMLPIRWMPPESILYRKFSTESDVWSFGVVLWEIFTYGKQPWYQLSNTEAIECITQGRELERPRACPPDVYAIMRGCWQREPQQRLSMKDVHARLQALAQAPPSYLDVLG
human TrkA expressed on transfected cells (4-3.6 cells; NIH3T3-TrkA cells) (human), sequence (P04629 33-796): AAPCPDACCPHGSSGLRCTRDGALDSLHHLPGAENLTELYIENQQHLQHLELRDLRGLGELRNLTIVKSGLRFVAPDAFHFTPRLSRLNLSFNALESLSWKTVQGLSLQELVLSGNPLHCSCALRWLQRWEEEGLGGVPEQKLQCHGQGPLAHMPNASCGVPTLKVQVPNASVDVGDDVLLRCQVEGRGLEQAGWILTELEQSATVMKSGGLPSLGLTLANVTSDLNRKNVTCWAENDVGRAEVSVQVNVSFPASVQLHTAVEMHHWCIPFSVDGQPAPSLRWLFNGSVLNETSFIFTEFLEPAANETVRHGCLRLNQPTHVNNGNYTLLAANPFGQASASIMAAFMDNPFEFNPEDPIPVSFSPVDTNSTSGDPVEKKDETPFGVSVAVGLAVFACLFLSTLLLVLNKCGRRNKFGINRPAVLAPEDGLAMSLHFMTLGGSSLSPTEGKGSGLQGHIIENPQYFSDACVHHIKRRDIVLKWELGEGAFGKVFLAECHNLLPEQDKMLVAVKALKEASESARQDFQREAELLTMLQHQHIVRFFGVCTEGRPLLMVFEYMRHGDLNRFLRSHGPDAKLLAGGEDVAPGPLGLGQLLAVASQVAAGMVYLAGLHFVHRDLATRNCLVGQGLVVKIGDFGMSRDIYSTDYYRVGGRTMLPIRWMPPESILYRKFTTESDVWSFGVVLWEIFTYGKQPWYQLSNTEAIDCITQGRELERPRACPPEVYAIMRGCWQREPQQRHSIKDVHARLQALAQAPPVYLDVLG
T1 sequence (Q16288 32-839): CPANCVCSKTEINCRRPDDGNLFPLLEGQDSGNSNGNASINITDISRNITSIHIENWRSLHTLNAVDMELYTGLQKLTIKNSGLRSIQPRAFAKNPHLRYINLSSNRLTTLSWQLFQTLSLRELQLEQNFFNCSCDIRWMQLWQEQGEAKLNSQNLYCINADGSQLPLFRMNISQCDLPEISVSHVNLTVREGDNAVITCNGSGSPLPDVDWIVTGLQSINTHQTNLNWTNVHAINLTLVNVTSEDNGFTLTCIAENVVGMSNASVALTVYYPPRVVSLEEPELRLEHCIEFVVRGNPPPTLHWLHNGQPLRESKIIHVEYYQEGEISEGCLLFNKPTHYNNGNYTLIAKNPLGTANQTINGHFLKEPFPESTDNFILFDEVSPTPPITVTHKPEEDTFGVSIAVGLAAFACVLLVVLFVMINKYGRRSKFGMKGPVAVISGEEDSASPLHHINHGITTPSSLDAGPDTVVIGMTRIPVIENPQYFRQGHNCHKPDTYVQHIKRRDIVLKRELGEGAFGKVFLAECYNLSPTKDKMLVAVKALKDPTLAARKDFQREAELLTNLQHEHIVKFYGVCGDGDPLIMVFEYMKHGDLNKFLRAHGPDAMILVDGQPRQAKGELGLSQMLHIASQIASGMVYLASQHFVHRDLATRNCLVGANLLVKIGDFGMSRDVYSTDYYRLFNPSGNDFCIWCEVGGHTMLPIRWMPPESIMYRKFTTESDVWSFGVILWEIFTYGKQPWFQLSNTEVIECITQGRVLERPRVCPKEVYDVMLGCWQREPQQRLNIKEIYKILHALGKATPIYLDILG

- fold fluorescence over control peptide-biotin [1]: 4 fold
- MCF [2]: 10 MCF
- MCF [3]: 53 MCF
Molecule: D3-biotin (biotin derivative of D3) (peptide)

Molecule: NGF: neurotrophin nerve growth factor, natural ligand of TrkA
- % Protection ([4]; NGF 20 pM): 9 ± 1%
- Optical Density ([4]; NGF 20 pM): 316 ± 11
- % Protection ([4]; NGF 500 pM): 68 ± 3%
- Optical Density ([4]; NGF 500 pM): 535 ± 19
- Optical Density ([4]; NGF 1 nM): 823 ± 28
- % Protection ([4]; NGF 1 nM, relative to 1 nM NGF): 100 ± 4%
- ChAT Activity (septal neuronal cultures; 10 pM NGF): 0.42 ± 0.07 pmol Ach/min/well
- ChAT Activity (septal neuronal cultures; 400 pM NGF): 0.72 ± 0.10 pmol Ach/min/well
- NIH-TrkC % Protection ([5]; 10 pM NGF): 2 ± 4%
- NIH-TrkC % Protection ([5]; 1 nM NGF): 5 ± 6%
- NIH wt % Protection ([6]; 10 pM NGF): 5 ± 7% and 3 ± 5%
- NIH wt % Protection ([6]; 1 nM NGF): 5 ± 12% and 4 ± 6%
- protection from apoptosis (B104 cells): neither D3 nor NGF protected
- protection from apoptosis (wild type HEK293 cells): neither D3 nor NGF protected
- protection from apoptosis [7]: neither D3 nor NGF protected
- biological activity in trophic assays after enzymatic treatment [8]: lost all activity within minutes

- % Protection (MTT, 4-3.6 cells), 10 µM D3 [9]: 8%
- % Protection (MTT, 4-3.6 cells), 10 µM D3 + 10 pM NGF [9]: 55%
- % Protection (MTT, NIH-TrkA), 10 µM D3 [9]: 8%
- % Protection (MTT, NIH-TrkA), 10 µM D3 + 10 pM NGF [9]: 51%
- intensity of the Mr 300 kDa band (putative TrkA·TrkA dimers) after cross-linking, standardized to 1 nM NGF (100%), 10 pM NGF + 10 µM D3 [9]: 77%
- intensity of the Mr 300 kDa band (putative TrkA·TrkA dimers) after cross-linking, standardized to 1 nM NGF (100%), 10 µM D3 alone [9]: 21%
- ChAT Fold Increase, 0.2 µM D3 [10]: 1.23 fold
- ChAT Fold Increase, 0.2 µM D3 + 10 pM NGF [10]: 2 fold
- ChAT Fold Increase, 2 µM D3 [10]: 1.47 fold
- ChAT Fold Increase, 2 µM D3 + 10 pM NGF [10]: 2.53 fold
- ChAT Fold Increase, 20 µM D3 [10]: 1.56 fold
- ChAT Fold Increase, 20 µM D3 + 10 pM NGF [10]: 2.63 fold
- % Maximal binding of mAb 5C3 [11]: 80%
- % Maximal binding of mAb 5C3 [12]: 53%
- Kd [13]: 2000 nM
- % Maximal binding of mAb 5C3 [14]: 33%
- % Maximal binding of mAb 5C3 [15]: 95%
- % Maximal binding of mAb MC192 [16]: 101%
- Kd [17]: 2000 nM
- % Binding of mAb 5C3 [18]: 64%
- % Binding of mAb 5C3 [19]: 43%
- % Binding of mAb 5C3 [20]: 38%
- % Binding of mAb 5C3 [21]: 31%
- % Binding of mAb 5C3 [22]: 89%
- % Binding of mAb 5C3 [23]: 100%
- MCF of D3-biotin in the presence of competitor D3 [24]: 11 MCF
- MCF of D3-biotin in the presence of competitor D3 [25]: 17 MCF
Molecule: {5‑nitrobenzoyl}-EK[hSer]G-OH (bridge N-3) [D3 (EKHse-G-OH), β-turn peptidomimetic cyclic compound]
- Optical Density (MTT survival, 4-3.6 cells), 10 µM D3 [9]: 95 OD
- Optical Density (MTT survival, 4-3.6 cells), 10 µM D3 + 10 pM NGF [9]: 255 OD
